This note sets out measurements from US7919262B2, “14-3-3 proteins for diagnosis of Parkinson's disease” (The UAB Research Foundation, priority 2007, dated 2011).

The experiment relates to M17 cells. Briefly: MPP+ toxicity in stably transfected cell lines, LDH release. In kind it is cell-based, human. Particulars: stable overexpression; MPP+ 0-10 mM; 24 hours. The protocol: Cell lines stably-transfected with either a 14-3-3 isoform or empty vector were treated with varying concentrations of MPP+ for 24 hours. Cell death was assayed by LDH release into the culture media. LDH release into media was normalized to total LDH release for each well. Lines overexpressing 14-3-3θ (FIG. 9A), 14-3-3ε (FIG. 9B), or 14-3-3γ (FIG. 9C) were more resistant to MPP+ in a dose-dependent manner compared to control stable cells. […] Results reflect two to three independent experiments with at least two replicates per experiment. **p<0.01, ***p<0.001 (Bonferroni's multiple comparison test).
The 14-3-3 expressing M17 clones were also tested for resistance to the neurotoxin 1-methyl-4-phenylpyridinium ion (MPP+), which is a metalbolite of 1-methyl-4-phenyl-1,2,3,6-tetrahydropyridine (MPTP). M17 cells expressing the 14-3-3 isoforms were prepared as described. M17 cells were treated with MPP+ (0-10 mM) for 24 hours (FIGS. 9A-G). Cell death was assayed by LDH release into the culture media as described above.
Primers against each of the human 14-3-3 isoforms were designed using Primer3. Primers against 14-3-3β (NM_018753) were 5′ […] 3′ (forward; SEQ ID NO. 9) and 5′ […] 3′ (reverse; SEQ ID NO. 10). Primers against 14-3-3ε (NM_009536) were 5′ […] 3′ (forward; SEQ ID NO. 11) and 5′ […] 3′ (reverse; SEQ ID NO. 12). Primers against 14-3-3γ (NM_018871) were 5′ […] 3′ (forward; SEQ ID NO. 13) and 5′ […] 3′ (reverse; SEQ ID NO. 14). Primers against 14-3-3η (NM_011738) were 5′ […] 3′ (forward; SEQ ID NO. 15) and 5′ […] 3′ (reverse; SEQ ID NO. 16). Primers against 14-3-3θ (NM_011739) were 5′ […] 3′ (forward; SEQ ID NO. 17) and 5′ […] 3′ (reverse; SEQ ID NO. 18). Primers against 14-3-3σ (NM_018754) were 5′ […] 3′ (forward; SEQ ID NO. 19) and 5′ […] 3′ (reverse; SEQ ID NO. 20). Primers against 14-3-3ζ(NM_011740) were 5′ […] 3′ (forward; SEQ ID NO. 21) and 5′ […] 3′ (reverse; SEQ ID NO. 22). Primers against GAPDH were 5′ tggtgaagcaggeatctga 3′ (forward; SEQ ID NO. 23) and 5′ […] 3′ (reverse; SEQ ID NO. 24) and were used to normalize PCR results. • α-syn aggregation assay H4 cells were transfected with synphilin, α-syn/green fluorescent protein (synT), and either empty vector control or a 14-3-3 isoform using Superfect transfection reagent (Qiagen). 24 hours after transfection, cells were fixed with 4% paraformaldehyde and immunostained with a monoclonal antibody against α-syn (BD Transduction) and a secondary Alexa 488-conjugated goat anti-mouse antibody (Molecular Probes). All cells stained for α-syn were scored as positive or negative for α-syn aggregates, with the rater blind to experimental condition. • α-syn toxicity assay H4 cells were transfected with α-syn and either empty vector control or a 14-3-3 isoform using Superfect transfection reagent (Qiagen). 24 hours after transfection, toxicity was measured by the amount of adenylate kinase released into the media using the ToxiLight™ kit (Cambrex). • Creation of stable cell lines Each 14-3-3 isoform was subcloned into the mammalian expression vector mcDNA3.1/V5-His (Invitrogen). BE(2)-M17 cells were transfected with each isoform or empty vector using Superfect, and stably-transfected cells were selected for in the presence of G418. […] Protein concentrations of supernatants were determined by the bicinchoninic acid assay (BCA; Pierce, Rockford, Ill.). […]
A general note: Release of lactate dehydrogenase indicates damage to the cell membrane.

Regarding “14-3-3γ: 14-3-3 polypeptide γ isoform, overexpressed from expression vector”, the “protection against MPP+ toxicity (LDH release)” value (“protection against MPP+ toxicity” for short) is “reduced toxicity”.

B1: 14-3-3ε: 14-3-3 polypeptide ε isoform, overexpressed from expression vector (protein, UniProt P62258 1-255, looked up)
14-3-3 protein epsilon: MDDREDLVYQAKLAEQAERYDEMVESMKKVAGMDVELTVEERNLLSVAYKNVIGARRASWRIISSIEQKEENKGGEDKLKMIREYRQMVETELKLICCDILDVLDKHLIPAANTGESKVFYYKMKGDYHRYLAEFATGNDRKEAAENSLVAYKAASDIAMTELPPTHPIRLGLALNFSVFYYEILNSPDRACRLAKAAFDDAIAELDTLSEESYKDSTLIMQLLRDNLTLWTSDMQGDGEEQNKEALQDVEDENQ
As for B1, the “protection against MPP+ toxicity” value is reported as “reduced toxicity”.

B2: 14-3-3θ: 14-3-3 polypeptide θ isoform, overexpressed from V5/His-tagged pcDNA3.1 vector (or as transgene in C. elegans) (protein, UniProt P27348 1-245, looked up)
14-3-3 protein theta: MEKTELIQKAKLAEQAERYDDMATCMKAVTEQGAELSNEERNLLSVAYKNVVGGRRSAWRVISSIEQKTDTSDKKLQLIKDYREKVESELRSICTTVLELLDKYLIANATNPESKVFYLKMKGDYFRYLAEVACGDDRKQTIDNSQGAYQEAFDISKKEMQPTHPIRLGLALNFSVFYYEILNNPELACTLAKTAFDEAIAELDTLNEDSYKDSTLIMQLLRDNLTLWTSDSAGEECDAAEGAEN
modifications: V5/His tag
For B2, the “protection against MPP+ toxicity” value is recorded as “reduced toxicity”.

B3: 14-3-3ζ: 14-3-3 polypeptide ζ isoform, overexpressed from expression vector (protein, UniProt P63104 1-245, looked up)
14-3-3 protein zeta/delta: MDKNELVQKAKLAEQAERYDDMAACMKSVTEQGAELSNEERNLLSVAYKNVVGARRSSWRVVSSIEQKTEGAEKKQQMAREYREKIETELRDICNDVLSLLEKFLIPNASQAESKVFYLKMKGDYYRYLAEVAAGDDKKGIVDQSQQAYQEAFEISKKEMQPTHPIRLGLALNFSVFYYEILNSPEKACSLAKTAFDEAIAELDTLSEESYKDSTLIMQLLRDNLTLWTSDTQGDEAEAGEGGEN
Consider B3, for which the “protection against MPP+ toxicity” value is given as “did not show any significant protection”.
